Experimental data: the supplement of paper PMC10567573

B1: NP_116010.1 (parent)
chain: HSLRAVSTDPPHHDHHDEFCLMP

Columns and labels:
[1] = variants of: B1; assay: protein stability index of a GFP-peptide fusion (GPS, HEK-293T) (PSI 1-6); higher = more stable; details: c terminus: native
[2] = variants of: B1; assay: as above; details: c terminus: native; remark: listed apart in the source

Variant	protein stability index [1]	protein stability index [2]
HSLRAVSTDPPHHDHSDEFCLMP [H16S]	2.54	2.61
HSLRAVSTDPPHHDHEDEFCLMP [H16E]	3.25	2.84
HSLRAVSTDPPHHDHYDEFCLMP [H16Y]	2.58	2.61
HSLRAVSTDPPHHDHRDEFCLMP [H16R]	2.34	2.24
HSLRAVSTDPPHHDHNDEFCLMP [H16N]	2.81	2.06
HSLRAVSTDPPHHDHFDEFCLMP [H16F]	2.65	2.67
HSLRAVSTDPPHHDHMDEFCLMP [H16M]	2.56	2.2
HSLRAVSTDPPHHDHGDEFCLMP [H16G]	2.64	1.99
HSLRAVSTDPPHHDHDDEFCLMP [H16D]	2.64	2.29
HSLRAVSTDPPHHDHIDEFCLMP [H16I]	2.87	1.65
HSLRAVSTDPPHHDHVDEFCLMP [H16V]	2.98	2
HSLRAVSTDPPHHDHQDEFCLMP [H16Q]	2.77	2.17
HSLRAVSTDPPHHDHCDEFCLMP [H16C]	2.66	2.44
HSLRAVSTDPPHHDHADEFCLMP [H16A]	2.9	2.52
HSLRAVSTDPPHHDHLDEFCLMP [H16L]	2.61	2.4
HSLRAVSTDPPHHDHWDEFCLMP [H16W]	2.32	–
HSLRAVSTDPPHHDHTDEFCLMP [H16T]	2.69	2.58
HSLRAVSTDPPHHDHKDEFCLMP [H16K]	2.81	1.86
HSLRAVSTDPPHHDHHDEFRLMP [C20R]	4.76	3.55
HSLRAVSTDPPHHDHHDEFVLMP [C20V]	4.51	3.09
HSLRAVSTDPPHHDHHDEFHLMP [C20H]	3.74	2.41
HSLRAVSTDPPHHDHHDEFNLMP [C20N]	3.24	2.21
HSLRAVSTDPPHHDHHDEFTLMP [C20T]	3.61	2.3
HSLRAVSTDPPHHDHHDEFSLMP [C20S]	2.48	2.35
HSLRAVSTDPPHHDHHDEFGLMP [C20G]	2.09	3.08
HSLRAVSTDPPHHDHHDEFDLMP [C20D]	3.8	2.69

Variant	protein stability index [1]	protein stability index [2]
HSLRAVSTDPPHHDHHDEFWLMP [C20W]	3.48	3.13
HSLRAVSTDPPHHDHHDEFILMP [C20I]	4.33	3.11
HSLRAVSTDPPHHDHHDEFLLMP [C20L]	4.58	3.49
HSLRAVSTDPPHHDHHDEFKLMP [C20K]	4.78	4.4
HSLRAVSTDPPHHDHHDEFQLMP [C20Q]	2.59	1.89
HSLRAVSTDPPHHDHHDEFALMP [C20A]	2.8	2.05
HSLRAVSTDPPHHDHHDEFELMP [C20E]	2.5	2.34
HSLRAVSTDPPHHDHHDEFMLMP [C20M]	3.14	2.16
HSLRAVSTDPPHHDHHDEFFLMP [C20F]	4.5	3.54
HSLRAVSTDPPHHDMHDEFCLMP [H15M]	2.56	2.16
HSLRAVSTDPPHHDNHDEFCLMP [H15N]	2.76	2.07
HSLRAVSTDPPHHDRHDEFCLMP [H15R]	2.32	2.15
HSLRAVSTDPPHHDQHDEFCLMP [H15Q]	2.48	2.79
HSLRAVSTDPPHHDWHDEFCLMP [H15W]	2.14	2.11
HSLRAVSTDPPHHDYHDEFCLMP [H15Y]	2.53	1.84
HSLRAVSTDPPHHDVHDEFCLMP [H15V]	2.81	3.14
HSLRAVSTDPPHHDTHDEFCLMP [H15T]	2.58	1.86
HSLRAVSTDPPHHDSHDEFCLMP [H15S]	2.76	1.8
HSLRAVSTDPPHHDHHDEMCLMP [F19M]	2.46	2.6
HSLRAVSTDPPHHDHHDEPCLMP [F19P]	2.33	2.79
HSLRAVSTDPPHHDHHDEGCLMP [F19G]	2.25	–
HSLRAVSTDPPHHDHHDERCLMP [F19R]	2.5	1.8
HSLRAVSTDPPHHDHHDENCLMP [F19N]	2.27	2.42
HSLRAVSTDPPHHDHHDEQCLMP [F19Q]	2.46	2.26
HSLRAVSTDPPHHDHHDEACLMP [F19A]	2.57	3.6
HSLRAVSTDPPHHDHHDECCLMP [F19C]	2.12	–

Variant	protein stability index [1]	protein stability index [2]
HSLRAVSTDPPHHDHHDEYCLMP [F19Y]	2.54	2.33
HSLRAVSTDPPHHDHHDELCLMP [F19L]	2.31	1.97
HSLRAVSTDPPHHDHHDEVCLMP [F19V]	2.41	2.17
HSLRAVSTDPPHHDHHDEKCLMP [F19K]	2.87	1.59
HSLRAVSTDPPHHDHHDESCLMP [F19S]	2.47	3.38
HSLRAVSTDPPHHDHHDEECLMP [F19E]	2.57	2.82
HSLRAVSTDPPHHDHHDEWCLMP [F19W]	2.52	2.39
HSLRAVSTDPPHHDHHDEICLMP [F19I]	2.2	2.89
HSLRAVSTDPPHHDHHDETCLMP [F19T]	2.67	1.95
HSLRAVSTDPPHHDHHDEFCIMP [L21I]	2.56	1.68
HSLRAVSTDPPHHDHHDEFCAMP [L21A]	2.83	1.67
HSLRAVSTDPPHHDHHDEFCHMP [L21H]	2.92	1.22
HSLRAVSTDPPHHDHHDEFCFMP [L21F]	2.21	2.37
HSLRAVSTDPPHHDHHDEFCCMP [L21C]	2.9	2.63
HSLRAVSTDPPHHDHHDEFCEMP [L21E]	3.53	2.51
HSLRAVSTDPPHHDHHDTFCLMP [E18T]	2.72	2.2
HSLRAVSTDPPHHDHHDKFCLMP [E18K]	1.95	3.01
HSLRAVSTDPPHHDHHDYFCLMP [E18Y]	2.22	2.08
HSLRAVSTDPPHHDHHDWFCLMP [E18W]	2.61	–
HSLRAVSTDPPHHDHHDIFCLMP [E18I]	2.5	2.05
HSLRAVSTDPPHHDHHDHFCLMP [E18H]	2.32	3.57
HSLRAVSTDPPHHDHHDFFCLMP [E18F]	2.12	3.33
HSLRAVSTDPPHHDHHDAFCLMP [E18A]	2.37	1.58
HSLRAVSTDPPHHDHHDSFCLMP [E18S]	2.19	2.32
HSLRAVSTDPPHHDHHDNFCLMP [E18N]	2.44	2.84
HSLRAVSTDPPHHDHHDLFCLMP [E18L]	2.55	2.29

Variant	protein stability index [1]	protein stability index [2]
HSLRAVSTDPPHHDHHDCFCLMP [E18C]	2.85	2.46
HSLRAVSTDPPHHDHHDRFCLMP [E18R]	2.35	–
HSLRAVSTDPPHHDHHDVFCLMP [E18V]	2.58	2.14
HSLRAVSTDPPHHDHHDQFCLMP [E18Q]	2.7	1.93
HSLRAVSTDPPHHDHHDMFCLMP [E18M]	2.15	2.24
HSLRAVSTDPPHHDHHDGFCLMP [E18G]	2.48	–
HSLRAVSTDPPHHDHHSEFCLMP [D17S]	2.31	2.78
HSLRAVSTDPPHHDHHHEFCLMP [D17H]	2.21	–
HSLRAVSTDPPHHDHHNEFCLMP [D17N]	2.4	–
HSLRAVSTDPPHHDHHAEFCLMP [D17A]	2.44	1.76
HSLRAVSTDPPHHDHHCEFCLMP [D17C]	2.46	2.45
HSLRAVSTDPPHHDHHLEFCLMP [D17L]	2.54	2.72
HSLRAVSTDPPHHDHHIEFCLMP [D17I]	2.57	2.8
HSLRAVSTDPPHHDHHMEFCLMP [D17M]	2.3	4.33
HSLRAVSTDPPHHDHHVEFCLMP [D17V]	2.33	2.93
HSLRAVSTDPPHHDHHGEFCLMP [D17G]	2.11	1.88
HSLRAVSTDPPHHDHHWEFCLMP [D17W]	2.1	3.5
HSLRAVSTDPPHHDHHYEFCLMP [D17Y]	2.17	3.33
HSLRAVSTDPPHHDHHEEFCLMP [D17E]	2.66	2.59
HSLRAVSTDPPHHDHHREFCLMP [D17R]	2.16	–
HSLRAVSTDPPHHDHHKEFCLMP [D17K]	2.4	–
HSLRAVSTDPPHHDHHQEFCLMP [D17Q]	2.2	2
HSLRAVSTDPPHHDHHTEFCLMP [D17T]	2.42	2.33
HSLRAVSTDPPHHDHHFEFCLMP [D17F]	2.21	3.35
